Laboratory results taken from IntAct's records for PubMed 21664272.

Each substance was assayed against T1, rasa1_human RASA1 (UniProt P20936).
T1 sequence: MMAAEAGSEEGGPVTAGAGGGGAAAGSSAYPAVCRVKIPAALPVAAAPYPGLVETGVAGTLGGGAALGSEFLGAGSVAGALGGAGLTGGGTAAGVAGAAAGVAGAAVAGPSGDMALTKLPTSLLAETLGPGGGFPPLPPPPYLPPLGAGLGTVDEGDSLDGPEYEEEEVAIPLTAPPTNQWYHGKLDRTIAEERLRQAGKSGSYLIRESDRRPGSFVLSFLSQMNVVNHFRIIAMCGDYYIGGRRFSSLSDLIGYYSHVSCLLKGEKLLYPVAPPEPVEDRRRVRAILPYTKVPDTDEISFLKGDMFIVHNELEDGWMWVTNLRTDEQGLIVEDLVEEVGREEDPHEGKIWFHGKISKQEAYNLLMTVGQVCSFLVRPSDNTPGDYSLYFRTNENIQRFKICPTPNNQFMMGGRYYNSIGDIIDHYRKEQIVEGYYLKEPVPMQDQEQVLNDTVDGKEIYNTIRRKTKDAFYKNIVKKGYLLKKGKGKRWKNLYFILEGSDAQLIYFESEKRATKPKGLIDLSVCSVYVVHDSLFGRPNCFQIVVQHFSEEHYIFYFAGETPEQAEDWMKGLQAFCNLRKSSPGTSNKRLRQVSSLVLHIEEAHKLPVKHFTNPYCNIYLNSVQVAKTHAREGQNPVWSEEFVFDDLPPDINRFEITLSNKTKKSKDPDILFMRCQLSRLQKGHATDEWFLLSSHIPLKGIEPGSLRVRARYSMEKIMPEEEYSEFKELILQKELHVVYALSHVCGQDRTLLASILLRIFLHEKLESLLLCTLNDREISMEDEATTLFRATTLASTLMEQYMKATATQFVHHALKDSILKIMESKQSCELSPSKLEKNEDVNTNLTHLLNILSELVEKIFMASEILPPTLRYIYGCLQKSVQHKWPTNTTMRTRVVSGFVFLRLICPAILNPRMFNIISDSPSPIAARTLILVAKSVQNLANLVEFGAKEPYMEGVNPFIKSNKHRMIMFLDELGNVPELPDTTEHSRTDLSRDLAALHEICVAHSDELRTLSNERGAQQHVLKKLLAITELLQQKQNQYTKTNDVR

| effect of a mutation on the interaction | Substance |
| --- | --- |
| decreasing interaction | SH2/SH3 adapter protein NCK1 (Homo sapiens) (from UniProt P16333) W38K;W143K;W229K;R308K |
| disrupting interaction | SH2/SH3 adapter protein NCK1 (Homo sapiens) (from UniProt P16333) W38K;W229K;R308K |
| decreasing interaction | SH2/SH3 adapter protein NCK1 (Homo sapiens) (from UniProt P16333) W143K;W229K;R308K |

The next lines start with the substance.

| Substance | effect of a mutation on the interaction |
| --- | --- |
| SH2/SH3 adapter protein NCK1 (Homo sapiens) (from UniProt P16333) W229K | decreasing interaction |
| SH2/SH3 adapter protein NCK1 (Homo sapiens) (from UniProt P16333) W38K;W39K;W143K;W229K | decreasing interaction |
| SH2/SH3 adapter protein NCK1 (Homo sapiens) (from UniProt P16333) W38K | decreasing interaction |
